Target: GBX2 (full-length) (mouse, UniProt P48031 1-348)
Assay: EMSA; 720 nM GBX2, 940 pM probe; supershift with GBX2 antibody; 2X binding buffer: 20 mM Tris-HCl pH 7.4, 50 mM KCl, 1 mM DTT, 10% glycerol, 200 µg/mL BSA, 2.2 µg/mL poly dI/dC; 30 min at 25 °C; 6% native PAGE, Tris-glycine
Details: protein: recombinant; label: 32P end label (probe); blunt

Chain of GBX2 (full-length) (P48031 whole entry): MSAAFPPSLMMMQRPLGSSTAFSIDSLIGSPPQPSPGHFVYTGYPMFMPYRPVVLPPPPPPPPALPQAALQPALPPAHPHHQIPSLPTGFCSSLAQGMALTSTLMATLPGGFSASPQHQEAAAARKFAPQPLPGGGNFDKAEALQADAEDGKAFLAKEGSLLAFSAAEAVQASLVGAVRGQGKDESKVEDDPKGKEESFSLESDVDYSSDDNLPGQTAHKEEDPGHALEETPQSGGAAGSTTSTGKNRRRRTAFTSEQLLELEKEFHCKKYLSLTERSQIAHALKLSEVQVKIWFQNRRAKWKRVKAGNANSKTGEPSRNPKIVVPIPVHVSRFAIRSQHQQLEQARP

B1: NRP1 oligonucleotide (dsDNA)
DNA 1: AACATTCCAAAAATTATCAACCATTTCAGGAATACATTTCATAAAAGCTAGATTGAGTTCTGCTTGTTTTTTATT
DNA 2: AATAAAAAACAAGCAGAACTCAATCTAGCTTTTATGAAATGTATTCCTGAAATGGTTGATAATTTTTGGAATGTT
binding result: binds

Source: paper PMC7768483, “Gbx2 Is Required for the Migration and Survival of a Subpopulation of Trigeminal Cranial Neural Crest Cells”
